Reference: PMC11169713 (2024)

What was measured:
Assay in all cases: SPR
MEDI8852 UCA = biological target: MEDI8852 UCA
56.a.09 mature = biological target: 56.a.09 mature
56.a.09 UCA = biological target: 56.a.09 UCA
MEDI8852 mature = biological target: MEDI8852 mature

B1: 28H6E11 Fab (anti-idiotype antibody) (Fab, V domains shown)
VH: QVQLQQSGPEVVRPGVSVKISCKGSGYTFTDHAMHWVKQSHAKSLEWIGVFNTYNGDTNYNQKFEDKATMTIDKSSSTAYLELARLTSEDSAIYYCVRLGLLGFYALDYWGQGTSVTVSS
VL: DVLMTQTPLSLPVSLGDQASISCRSSQSIVHSNGNTYLEWYLQKPGQSPKLLIYKVSNRFSGVPDRFSGSGSGTDFTLKISRVEAEDLGVYYCFQGSHVPLTFGAGTKLELK
In the case of B1, the Kd (MEDI8852 UCA) is reported as 0.943 nM, the Kd (56.a.09 mature) is reported as 496 nM and the Kd (56.a.09 UCA) is reported as 32500 nM. For the same binder, the Kd (MEDI8852 mature) was 941 nM.
